From article PMC5118412 (Cell Discovery, 2016)

Experiments:
GLP-1R = details: covalently attaches to C347; ref [34], [35]; cited from earlier work
From the text: GPCRs have been viewed as ‘allosteric machines’ [33] because many allosteric modulators have been identified binding outside the orthosteric pocket of the physiological activators to modulate endogenous agonist binding and function. […] Although mutating C347 to positively charged lysine or arginine ...

[1] = molecular target: human GLP-1R stably expressed in AD293 cells (GLP-1R/NlucP-293 cells) (human) (UniProt P43220)
[2] = molecular target: GLP-1-5xGSA-GLP-1R (24–429)–TEV site–tTA (UniProt P43220)
[3] = molecular target: EX4-5xGSA-GLP-1R (24–429)–TEV site–tTA (Gila monster | human) (UniProt P43220)
[4] = molecular target: GLP-1 Δ5-5xGSA-GLP-1R (24–429)–TEV site–tTA (UniProt P43220)
[5] = molecular target: GLP-1 Δ4-5xGSA-GLP-1R (24–429)–TEV site–tTA (UniProt P43220)

CC[S+]([O-])c1nc(-c2cccc(OCc3ccccc3)c2)cc(C(F)(F)F)n1 (stereo not drawn) [BETP, 4-(3-(Benzyloxy)phenyl)-2-ethylsulfinyl-6 (trifluoromethyl)pyrimidine]
allosteric modulation of GLP-1R (GLP-1R): positive allosteric modulator

GLP-1(9–37) (peptide)
cAMP signal (CRE-NanoLuc luciferase reporter) in GLP-1R/NlucP-293 cells; potency (EC50) of full-length GLP-1 over that of the truncated GLP-1 [1]: 1000 fold

ß-arrestin 1 fused with TEV protease (from UniProt P49407 1-418) (natural protein)
Tango assay (tTA/TRE-luc reporter) in HTL cells; arrestin recruiting signal against the unfused receptor with 1 μM hormone [2]: 150
Tango assay (tTA/TRE-luc reporter) in HTL cells; arrestin recruiting signal against the unfused receptor with 1 μM hormone [3]: 150
Tango assay (tTA/TRE-luc reporter) in HTL cells, relative to GLP-1-5GSA-FL (Δ0) (% of GLP-1-5GSA-FL (Δ0)) [4]: 50
Tango assay (tTA/TRE-luc reporter) in HTL cells, relative to GLP-1-5GSA-FL (Δ0) (% of GLP-1-5GSA-FL (Δ0)) [5]: 50
